Experimental findings from the supplement of paper PMC11316812 are described below.

± gives the standard deviation of the averaged measurements.

One data set concerns hTERT-HMEC. In words: percentage of EdU-negative (G0-arrested) nuclei per well, 72 h; higher = more G0 arrest. The following applies: reference: sequence is the full UniProt precursor, the tested protein was the secreted form or ectodomain.
The subject of another data set is MCF7. The description is as above. The following applies: reference: sequence is the full UniProt precursor, the tested protein was the secreted form or ectodomain.
The mark [1] stands for this setting: protein concentration 0.03125 µM.
The mark [2] stands for this setting: protein concentration 0.3125 µM.
[3] abbreviates: protein concentration 0.0225 µM.
Setting [4] is: protein concentration 0.0251975 µM.
[5] abbreviates: protein concentration 0.251975 µM.
Setting [6] is: protein concentration 0.0131429 µM.
The mark [7] stands for this setting: protein concentration 0.131429 µM.
Where [8] appears, read: protein concentration 0.028295 µM.
Where [9] appears, read: protein concentration 0.28295 µM.
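Also: secreted proteins added to cultured cells, EdU pulse at the end, nuclei found by Hoechst imaging, EdU status from nuclear versus surrounding ring intensity ratio, PBS as neutral control.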

Consider “MAPARAGFCPLLLLLLLGLWVAEIPVSAKPKGMTSSQWFKIQHMQPSPQACNSAMKNINKHTKRCKDLNTFLHEPFSSVAATCQTPKIACKNGDKNCHQSHGAVSLTMCKLTSGKHPNCRYKEKRQNKSYVVACKPPQKKDSQQFHLVPVHLDRVL [Q9H1E1]”, for which the “percentage of EdU-negative” value in the data set with hTERT-HMEC (setting [1]) is 4.51 ± 0.69%; in the data set on hTERT-HMEC (setting [2]), 6.66 ± 0.32%; in the data set with MCF7 (setting [1]), 24.6 ± 0.7%; with MCF7 (setting [2]), 26 ± 3.1%.

Take “MAPGSRTSLLLAFALLCLPWLQEAGAVQTVPLSRLFDHAMLQAHRAHQLAIDTYQEFEETYIPKDQKYSFLHDSQTSFCFSDSIPTPSNMEETQQKSNLELLRISLLLIESWLEPVRFLRSMFANNLVYDTSDSDDYHLLKDLEEGIQTLMGRLEDGSRRTGQILKQTYSKFDTNSHNHDALLKNYGLLYCFRKDMDKVETFLRMVQCRSVEGSCGF [P0DML2]”: the “percentage of EdU-negative” value in the data set with hTERT-HMEC (setting [1]) was determined as 5.53 ± 0.26%; with hTERT-HMEC (setting [2]), 6.34 ± 1.3%; with MCF7 (setting [1]), 28.31 ± 0.052%; in the data set with MCF7 (setting [2]), 25.8 ± 0.31%.

Consider “MAPISLSWLLRLATFCHLTVLLAGQHHGVTKCNITCSKMTSKIPVALLIHYQQNQASCGKRAIILETRQHRLFCADPKEQWVKDAMQHLDRQAAALTRNGGTFEKQIGEVKPRTTPAAGGMDESVVLEPEATGESSSLEPTPSSQEAQRALGTSPELPTGVTGSSGTRLPPTPKAQDGGPVGTELFRVPPVSTAATWQSSAPHQPGPSLWAEAKTSEAPSTQDPSTQASTASSPAPEENAPSEGQRVWGQGQSPRPENSLEREEMGPVPAHTDAFQDWGPGSMAHVSVVPVSSEGTPSREPVASGSWTPKAEEPIHATMDPQRLGVLITPVPDAQAATRRQAVGLLAFLGLLFCLGVAMFTYQSLQGCPRKMAGEMAEGLRYIPRSCGSNSYVLVPV”, for which the “percentage of EdU-negative” value in the data set on hTERT-HMEC (setting [3]) amounted to 4.91 ± 0.028%; in the data set on hTERT-HMEC (protein concentration 0.225 µM) it was 5.92 ± 0.33%; with MCF7 (setting [3]), 24.7 ± 2.4%; with MCF7 (protein concentration 0.225 µM), 25.18 ± 0.043%.

With “MAPLKMLALVTLLLGASLQHIHAARGTNVGRECCLEYFKGAIPLRKLKTWYQTSEDCSRDAIVFVTVQGRAICSDPNNKRVKNAVKYLQSLERS”, the “percentage of EdU-negative” value turned out to be 5.05 ± 1.6% in the data set on hTERT-HMEC (setting [4]), 5.85 ± 0.93% in the data set on hTERT-HMEC (setting [5]), 26 ± 0.51% in the data set on MCF7 (setting [4]) and 25.9 ± 0.28% in the data set on MCF7 (setting [5]).

In the case of “MAPLRPLLILALLAWVALADQESCKGRCTEGFNVDKKCQCDELCSYYQSCCTDYTAECKPQVTRGDVFTMPEDEYTVYDDGEEKNNATVHEQVGGPSLTSDLQAQSKGNPEQTPVLKPEEEAPAPEVGASKPEGIDSRPETLHPGRPQPPAEEELCSGKPFDAFTDLKNGSLFAFRGQYCYELDEKAVRPGYPKLIRDVWGIEGPIDAAFTRINCQGKTYLFKGSQYWRFEDGVLDPDYPRNISDGFDGIPDNVDAALALPAHSYSGRERVYFFKGKQYWEYQFQHQPSQEECEGSSLSAVFEHFAMMQRDSWEDIFELLFWGRTSAGTRQPQFISRDWHGVPGQVDAAMAGRIYISGMAPRPSLAKKQRFRHRNRKGYRSQRGHSRGRNQNSRRPSRATWLSLFSSEESNLGANNYDDYRMDWLVPATCEPIQSVFFFSGDKYYRVNLRTRRVDTVDPPYPRSIAQYWLGCPAPGHL”, the “percentage of EdU-negative” value was 5.37 ± 0.14% in the data set on hTERT-HMEC (setting [3]), 4.7 ± 1.1% with hTERT-HMEC (protein concentration 0.225 µM), 25.1 ± 3.1% with MCF7 (setting [3]) and 31.11 ± 0.19% in the data set on MCF7 (protein concentration 0.225 µM).

With “MAPPLRPLARLRPPGMLLRALLLLLLLSPLPGVWCFSELSFVKEPQDVTVTRKDPVVLDCQAHGEVPIKVTWLKNGAKMSENKRIEVLSNGSLYISEVEGRRGEQSDEGFYQCLAMNKYGAILSQKAHLALSTISAFEVQPISTEVHEGGVARFACKISSHPPAVITWEFNRTTLPMTMDRITALPTGVLQIYDVSQRDSGNYRCIAATVAHRRKSMEASLTVIPAKESKSFHTPTIIAGPQNITTSLHQTVVLECMATGNPKPIISWSRLDHKSIDVFNTRVLGNGNLMISDVRLQHAGVYVCRATTPGTRNFTVAMATLTVLAPPSFVEWPESLTRPRAGTARFVCQAEGIPSPKMSWLKNGRKIHSNGRIKMYNSKLVINQIIPEDDAIYQCMAENSQGSILSRARLTVVMSEDRPSAPYNVHAETMSSSAILLAWERPLYNSDKVIAYSVHYMKAEGLNNEEYQVVIGNDTTHYIIDDLEPASNYTFYIVAYMPMGASQMSDHVTQNTLEDVPLRPPEISLTSRSPTDILISWLPIPAKYRRGQVVLYRLSFRLSTENSIQVLELPGTTHEYLLEGLKPDSVYLVRITAATRVGLGESSVWTSHRTPKATSVKAPKSPELHLEPLNCTTISVRWQQDVEDTAAIQGYKLYYKEEGQQENGPIFLDTKDLLYTLSGLDPRRKYHVRLLAYNNIDDGYQADQTVSTPGCVSVRDRMVPPPPPPHHLYAKANTSSSIFLHWRRPAFTAAQIINYTIRCNPVGLQNASLVLYLQTSETHMLVQGLEPNTKYEFAVRLHVDQLSSPWSPVVYHSTLPEAPAGPPVGVKVTLIEDDTALVSWKPPDGPETVVTRYTILYASRKAWIAGEWQVLHREGAITMALLENLVAGNVYIVKISASNEVGEGPFSNSVELAVLPKETSESNQRPKRLDSADAKVYSGYYHLDQKSMTGIAVGVGIALTCILICVLILIYRSKARKSSASKTAQNGTQQLPRTSASLASGNEVGKNLEGAVGNEESLMPMIMPNSFIDAKGGTDLIINSYGPIIKNNSKKKWFFFQDSKKIQVEQPQRRFTPAVCFYQPGTTVLISDEDSPSSPGQTTSFSRPFGVAADTEHSANSEGSHETGDSGRFSHESNDEIHLSSVISTTPPNL [Q2VWP7]”, the “percentage of EdU-negative” value in the data set on hTERT-HMEC (setting [6]) is 4.73 ± 0.2%; with hTERT-HMEC (setting [7]), 5.16 ± 0.39%; in the data set on MCF7 (setting [6]), 25.8 ± 0.61%; in the data set with MCF7 (setting [7]), 25.2 ± 1.5%.

Turning to “MAPPQVLAFGLLLAAATATFAAAQEECVCENYKLAVNCFVNNNRQCQCTSVGAQNTVICSKLAAKCLVMKAEMNGSKLGRRAKPEGALQNNDGLYDPDCDESGLFKAKQCNGTSMCWCVNTAGVRRTDKDTEITCSERVRTYWIIIELKHKAREKPYDSKSLRTALQKEITTRYQLDPKFITSILYENNVITIDLVQNSSQKTQNDVDIADVAYYFEKDVKGESLFHSKKMDLTVNGEQLDLDPGQTLIYYVDEKAPEFSMQGLKAGVIAVIVVVVIAVVAGIVVLVISRKKRMAKYEKAEIKEMGEMHRELNA”, the “percentage of EdU-negative” value stood at 4.24 ± 0.27% in the data set on hTERT-HMEC (setting [8]), 7.81 ± 1.4% in the data set with hTERT-HMEC (setting [9]), 26.6 ± 1.3% in the data set with MCF7 (setting [8]) and 26.1 ± 0.38% in the data set with MCF7 (setting [9]).
